What was measured:
PKC-zeta = biological target: T1, PKC-zeta (Homo sapiens, UniProt Q05513); experiment: In vitro kinase assay: peptide phosphorylation by PKC-zeta; type: biochemical; conditions: for PKC-zeta phosphorylation: normalized to best substrate
T1 construct: purchased Calbiochem
T1 sequence (Q05513 1-592): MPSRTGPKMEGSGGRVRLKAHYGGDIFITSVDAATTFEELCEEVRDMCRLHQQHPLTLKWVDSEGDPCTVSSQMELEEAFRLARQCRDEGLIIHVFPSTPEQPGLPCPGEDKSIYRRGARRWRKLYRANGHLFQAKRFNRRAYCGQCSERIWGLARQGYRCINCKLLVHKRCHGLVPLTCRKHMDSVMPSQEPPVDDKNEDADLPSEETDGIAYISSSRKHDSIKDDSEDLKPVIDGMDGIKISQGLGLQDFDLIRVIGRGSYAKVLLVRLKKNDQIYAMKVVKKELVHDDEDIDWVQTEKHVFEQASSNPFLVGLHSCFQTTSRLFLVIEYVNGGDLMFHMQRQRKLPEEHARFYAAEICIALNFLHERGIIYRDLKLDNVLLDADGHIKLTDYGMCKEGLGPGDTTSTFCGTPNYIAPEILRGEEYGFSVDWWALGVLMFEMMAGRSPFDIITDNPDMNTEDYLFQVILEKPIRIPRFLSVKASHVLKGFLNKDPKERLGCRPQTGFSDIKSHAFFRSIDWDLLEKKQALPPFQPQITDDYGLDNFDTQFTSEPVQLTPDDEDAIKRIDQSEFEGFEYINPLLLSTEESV
Method: Catalytically active preparations of the kinases of interest were either purchased or prepared. Purchased and tested active kinase preparations including the following: PKC-alpha, PKC-delta, PKC-epsilon, PKC-zeta, PKC-mu, PKA, PKG from Calbiochem, ROK alpha/ROCK-II, active from Upstate Biotechnology, and AKT1 from Panvera.
(§1) The conditions of the kinase assay and the amount of active kinase used varied with the kinase and with the accuracy needed. For a typical experiment, 5-20 ng of kinase was used per well and each peptide pool was assayed in duplicate wells. Note that the absolute amount of kinase used was not usually a critical parameter, because the desired information related to specificity of the kinase not its absolute activity, and robustness of the assay depends on comparisons of the same amount of kinase on different peptides. The combination of kinase concentration and assay duration was modified to assure that the stoichiometry of peptide phosphorylation never exceeded 5%. The choice of kinase buffer depended on the kinase being analyzed. For studies of PKC, 100 mM HEPES, 0.05% Triton-X100, 1 mM CaCl2, 20 mM MgCl2, 0.2 mg/ml phosphatidyl serine (Avanti Polar Lipids), PMA 100 ng/ml was typically used. The lipid stock was prepared by transferring 3 mg phosphatidyl serine into iced mixture of 450 μl water plus 50 μl of 10% Triton-X100, sonicating 10 times on ice for 1 sec each.
(§2) The kinase reaction mixture was assembled by sequential addition to a tube held on ice of: 5 μl peptide (100 μM for final concentration of 10 μM), 15 μl of kinase (typically 5 ng/well, in appropriate kinase buffer), 30 μl of ATP (1 uCi/well of ^32P-gamma ATP in a stock of 167 μM cold ATP in the kinase buffer; for final concentration for 100 μM ATP). The mixture was rapidly warmed to desired reaction temperature (30° C. for PKC) and incubated for the desired duration (usually 10 minutes). The kinase assay was terminated by transfer to 4° C. water batch, and rapid addition of an equal volume (50 μl) of stop solution [0.1M ATP+0.1M EDTA in water, pH 8].
(§3) The peptides were then captured from the reaction mixture by transfer to a Reacti-Bind Streptavidin High Binding Capacity Coated Plates (HBC) (Pierce Biotechnology) as follows. The HBC plates were pre-rinsed three times with PBS/Tween PBS/Tween20 0.05% (PBS/Tween). Part of all of the reaction mixture was then transferred wells of a HBC plate pre-filled with 90 μl of phosphate-buffered saline (PBS); typically each aliquots of each phosphorylation reaction were transferred to duplicate HBC plates to assure accuracy by additional replication
For kinase assays done at the standard peptide concentration of 10 μM, the peptide concentration in the reaction mixture becomes 5 μM after addition of the stop solution; consequently 10 μl of the reaction (50 pMoles of peptide) was transferred to the HBC plate. More generally, the amount of reaction mixture transferred was estimated to be about 50 pMoles of peptide. […] The HBC plates were incubated for 0.5 to 1.5 hr at room temperature for complete binding of biotinylated peptides to plate-bound streptavidin. The HBC plates were then washed extensively with PBS/Tween. Five washes were done routinely and additional wash steps were added if the wash solution removed from the plate had measurable radioactivity as detected using a Geiger counter. This step is essential to obtaining a good the signal to noise ratio because the fraction of radioactivity incorporated in the peptides was a tiny fraction of the total in the reaction mixture. The wells were air-dried. A volume of 40-50 μl of microScint-20 (Packard Instruments) was added to each well. The plates were covered with stick-on film sheet. Radioactive emissions were measured in a TopCount NXT Microplate Scintillation and Luminescence Counter (Packard Instruments). Typically samples were counted for 5 minutes (or more) to improve the signal to noise ratio when counts were low. […]

PKC = experiment: In vitro phosphorylation by PKC (average of isoforms alpha, epsilon, delta, theta); type: biochemical; conditions: for PKC average: average of PKC-alpha, -epsilon, -theta, normalized to best substrate; for average (phosphorylation by PKC-theta, -delta, -epsilon, -alpha): average over PKC-theta, -epsilon and -alpha at 10 and 1 uM peptide, relative to best substrate
Method: as §1, §2, §3
For kinase assays done at the standard peptide concentration of 10 μM, the peptide concentration in the reaction mixture becomes 5 μM after addition of the stop solution; consequently 10 μl of the reaction (50 pMoles of peptide) was transferred to the HBC plate. More generally, the amount of reaction mixture transferred was estimated to be about 50 pMoles of peptide. […] The HBC plates were incubated for 0.5 to 1.5 hr at room temperature for complete binding of biotinylated peptides to plate-bound streptavidin. The HBC plates were then washed extensively with PBS/Tween. Five washes were done routinely and additional wash steps were added if the wash solution removed from the plate had measurable radioactivity as detected using a Geiger counter. This step is essential to obtaining a good the signal to noise ratio because the fraction of radioactivity incorporated in the peptides was a tiny fraction of the total in the reaction mixture. The wells were air-dried. A volume of 40-50 μl of microScint-20 (Packard Instruments) was added to each well. The plates were covered with stick-on film sheet. Radioactive emissions were measured in a TopCount NXT Microplate Scintillation and Luminescence Counter (Packard Instruments). Typically samples were counted for 5 minutes (or more) to improve the signal to noise ratio when counts were low.
Many peptides that are good substrates for PKC enzymes were identified using the methods of the invention. For example, Tables 4 and 5 provide a listing of peptides identified as potentially useful kinase substrates. […]

Row | Substance | PKC-zeta phosphorylation (PKC-zeta) | PKC average (PKC) | phosphorylation by PKC zeta (PKC-zeta; peptide concentration 1 uM) | phosphorylation by PKC zeta (PKC-zeta; peptide concentration 10 uM) | average (phosphorylation by PKC-theta, -delta, -epsilon, -alpha) (PKC)
1 | 81 (KRERKTSSKSSVRKRR) [compound 81] | 10% | 56% | – | – | –
2 | 87 (RQGKRKTSIKRDTVNPL) [compound 87] | 3% | 47% | – | – | –
3 | 88 (KKPFKLSGLSFKRNRKE) [compound 88] | 4% | 43% | – | – | –
4 | 91 (VHYTSKDTLRKRHYWR) [compound 91] | 12% | 40% | – | – | –
5 | 97 (KKRSSKKEASMKKVVRP) [compound 97] | 1% | 28% | – | – | –
6 | 98 (AGPLRKSSLKKGGRL) [compound 98] | 4% | 27% | – | – | –
7 | 148 (RELEQLKAEYLERRASRRRA) [compound 148] | – | – | 20 | 20 | 26
8 | 149 (RVVQSVKHTKRKSSTVMK) [compound 149] | – | – | 3 | 5 | 25
9 | 150 (VDPFYEMLAARKKRISVKKK) [compound 150] | – | – | 3 | 6 | 24
10 | 151 (PQNSLKASNRKKKRTSFKRK) [compound 151] | – | – | 15 | 28 | 24
11 | 152 (DLIEGRKGAQIVKRASLKRG) [compound 152] | – | – | 4 | 9 | 23
12 | 153 (TYLLPDKSRQGKRKTSIKRD) [compound 153] | – | – | 6 | 13 | 23

Reference: US20050064507A1, “Determining kinase specificity” (priority 2003, published 2005)
